Test results published in patent US20240287172A1 (SCIRHOM, published 2024).
Where a chain is given by its changes, count along the chain named.

T1: hiR2-FL-E594V-T7 (human, UniProt Q6PJF5 1-856)
T1 sequence: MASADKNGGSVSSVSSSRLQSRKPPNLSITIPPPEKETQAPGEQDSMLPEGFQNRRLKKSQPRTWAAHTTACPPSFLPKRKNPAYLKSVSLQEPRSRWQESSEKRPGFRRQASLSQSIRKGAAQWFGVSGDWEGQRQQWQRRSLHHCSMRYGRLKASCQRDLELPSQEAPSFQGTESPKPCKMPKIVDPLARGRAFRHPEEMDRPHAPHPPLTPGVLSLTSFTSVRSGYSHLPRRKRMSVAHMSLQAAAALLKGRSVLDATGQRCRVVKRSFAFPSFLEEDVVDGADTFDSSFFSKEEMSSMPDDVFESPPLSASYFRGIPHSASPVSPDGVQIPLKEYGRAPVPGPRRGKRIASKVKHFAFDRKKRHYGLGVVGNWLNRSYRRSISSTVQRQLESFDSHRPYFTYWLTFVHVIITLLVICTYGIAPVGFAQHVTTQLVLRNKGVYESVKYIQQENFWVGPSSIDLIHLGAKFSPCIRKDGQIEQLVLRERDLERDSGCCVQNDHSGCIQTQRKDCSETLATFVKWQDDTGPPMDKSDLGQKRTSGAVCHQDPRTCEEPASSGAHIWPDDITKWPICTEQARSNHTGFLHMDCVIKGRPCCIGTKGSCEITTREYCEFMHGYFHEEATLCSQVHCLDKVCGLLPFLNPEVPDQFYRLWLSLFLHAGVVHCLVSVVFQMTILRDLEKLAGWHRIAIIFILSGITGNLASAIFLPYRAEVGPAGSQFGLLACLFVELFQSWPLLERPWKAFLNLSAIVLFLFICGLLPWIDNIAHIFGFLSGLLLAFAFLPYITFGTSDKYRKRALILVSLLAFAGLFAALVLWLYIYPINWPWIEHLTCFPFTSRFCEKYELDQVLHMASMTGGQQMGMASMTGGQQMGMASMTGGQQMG

B1: antibody 48 (antibody, V domains shown)
VH: QVQLQQSGTELVRPGTSVKVSCKASGYAFTNYLIEWVKQRPGQGLEWIGVINPGSGFTKYNEKFKGKATLTADKSSSTVYMHLSSLTSEDSAVYFCARGLYRAMDYWGQGTSVTVSS
VL: DIQMTQSPASQSASLGESVTITCLASQTIATWLAWYQQKPGKSPQLLIYGATTLADGVPSRFSGGGSGTKFSFKISSLQAEDFVSYYCQQLYSTPYTFGGGTKLEIK
notes: mouse IgG, kappa light chain; also called clone #48; purified antibody 48
B2: antibody 50 (antibody, V domains shown)
VH: B1 VH with T9A, T16A, T30S, V79A, H82Q
VL: B1 VL with A30G, G50A, T52A, T53S, S85N, L91I
notes: mouse IgG, kappa light chain; also called clone #50; purified antibody 50

Biological target: T1, hiR2-FL-E594V-T7
Experiment: FACS, MEF-DKO cells, 3 µg/ml
In short: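 MEF-DKO cells expressing T7-tagged full-length hiR2 point mutants were stained on ice for 1 h with purified antibodies at 3 μg/ml in FACS buffer. Detection used PE-conjugated goat anti-mouse IgG F(ab′)2 (1:100, 1 h on ice), read by flow cytometry; buffer-only wells served as controls.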

| Binder | loss of binding vs wild type [%] |
| --- | --- |
| B1 | ≥ 30 |
| B2 | ≥ 30 |
